Article PMC2115112

Target: vimentin (rat (endogenous in glioma C6 cells)) (UniProt P31000)
Assay: co-sedimentation

Sequence of vimentin (rat (endogenous in glioma C6 cells)) (P31000 whole entry): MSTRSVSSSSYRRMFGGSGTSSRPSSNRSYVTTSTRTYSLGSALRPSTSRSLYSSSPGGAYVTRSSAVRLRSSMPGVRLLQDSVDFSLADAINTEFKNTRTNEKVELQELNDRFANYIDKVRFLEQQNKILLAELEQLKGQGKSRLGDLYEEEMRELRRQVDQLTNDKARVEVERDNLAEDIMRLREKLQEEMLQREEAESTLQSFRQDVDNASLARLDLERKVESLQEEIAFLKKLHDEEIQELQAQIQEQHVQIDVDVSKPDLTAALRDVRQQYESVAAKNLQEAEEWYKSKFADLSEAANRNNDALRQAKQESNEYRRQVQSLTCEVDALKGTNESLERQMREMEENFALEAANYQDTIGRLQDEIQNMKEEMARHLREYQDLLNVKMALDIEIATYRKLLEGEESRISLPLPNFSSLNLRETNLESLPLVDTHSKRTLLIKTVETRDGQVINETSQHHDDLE

**Q.** How did the mass ratio of plectin to vimentin in the pelleted aggregates turn out when plectin (Mr 300,000), P30427 1-4687 was run?
**A.** The mass ratio of plectin to vimentin in the pelleted aggregates was 0.25.

**Q.** And the mass ratio plectin/vimentin in the pellet P1 (round 1)?
**A.** The mass ratio plectin/vimentin in the pellet P1 (round 1) was 0.28.

**Q.** And the mass ratio plectin/vimentin in the pellet P2 (round 2)?
**A.** The mass ratio plectin/vimentin in the pellet P2 (round 2) was 0.23.

**Q.** And the percent of the total plectin recovered in the pellet of the mixture?
**A.** The percent of the total plectin recovered in the pellet of the mixture was 27%.

**Q.** What about the percent of the total vimentin recovered in the pellet of the mixture of the same substance?
**A.** The percent of the total vimentin recovered in the pellet of the mixture was 32%.
